Biological target: CA_(E180A) and CA_(E187A)
Test: co-sedimentation

## MxB_(1–35)-MBPdi (from UniProt P20592 1-35)
  binding as percent of WT CA tubes: 73 to 83 % of WT

— publication PMC7183857
